B4: phosphorylated PASC-Kin (PASC-Kin-P) (domain or fragment, E. coli, UniProt P0AEC8 212-539, looked up)
chain: LEPYEISTLFEQRQAMLQSIKEGVVAVDDRGEVTLINDAAQELLNYRKSQDDEKLSTLSHSWSQVVDVSEVLRDGTPRRDEEITIKDRLLLINTVPVRSNGVIIGAISTFRDKTEVRKLMQRLDGLVNYADALRERSHEFMNKLHVILGLLHLKSYKQLEDYILKTANNYQEEIGSLLGKIKSPVIAGFLISKINRATDLGHTLILNSESQLPDSGSEDQVATLITTLGNLIENALEALGPEPGGEISVTLHYRHGWLHCEVNDDGPGIAPDKIDHIFDKGVSTKGSERGVGLALVKQQVENLGGSIAVESEPGIFTQFFVQIPWDGE
modifications: phosphorylated by autophosphorylation with ATP; phosphorylation site His349
notes: cytoplasmic part of E. coli DcuS, residues 212-539, autophosphorylated with ATP; source: E. coli BL21(DE3), purified (Ni-NTA agarose), then incubated with 1 mM ATP; not shown: His6, N-terminal, kept
B5: His6-PASc-Kin (DcuS [AS 212-539]) (domain or fragment, E. coli, UniProt P0AEC8 212-539, looked up)
chain: LEPYEISTLFEQRQAMLQSIKEGVVAVDDRGEVTLINDAAQELLNYRKSQDDEKLSTLSHSWSQVVDVSEVLRDGTPRRDEEITIKDRLLLINTVPVRSNGVIIGAISTFRDKTEVRKLMQRLDGLVNYADALRERSHEFMNKLHVILGLLHLKSYKQLEDYILKTANNYQEEIGSLLGKIKSPVIAGFLISKINRATDLGHTLILNSESQLPDSGSEDQVATLITTLGNLIENALEALGPEPGGEISVTLHYRHGWLHCEVNDDGPGIAPDKIDHIFDKGVSTKGSERGVGLALVKQQVENLGGSIAVESEPGIFTQFFVQIPWDGE
notes: cytoplasmic part of E. coli DcuS (Linker, PASC and kinase domains), residues 212-539; unphosphorylated; pET28a derivative; homodimer by SEC (Mr 84 kDa, monomer 40.4 kDa); also called His6-PASc-Kinase; 6His-PASc-Kinase; source: E. coli BL21(DE3), purified (Ni-NTA agarose); not shown: His6, N-terminal, kept

One data set addresses T1, T25-DcuR (E. coli, UniProt P0AD01 1-239).
T1 construct: response regulator DcuR of E. coli (REC and HTH domains); also called DcuR-fusion; source: bacterial two-hybrid (BACTH) fusion in E. coli BTH101; not shown: T25 domain of Bordetella pertussis adenylate cyclase, N-terminal, kept
T1 sequence (looked up): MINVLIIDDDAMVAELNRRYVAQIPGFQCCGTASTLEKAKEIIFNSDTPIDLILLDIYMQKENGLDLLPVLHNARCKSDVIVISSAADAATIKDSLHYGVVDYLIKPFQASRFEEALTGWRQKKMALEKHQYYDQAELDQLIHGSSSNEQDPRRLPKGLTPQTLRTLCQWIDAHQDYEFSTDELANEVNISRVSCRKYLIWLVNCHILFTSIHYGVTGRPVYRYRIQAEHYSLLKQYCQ
As to the kind of experiment: two-hybrid; bacterial two-hybrid BACTH in E. coli BTH101 (ΔcyaA); T25 N-terminally on DcuR, T18 C-terminally on DcuS or PASC-Kin; β-galactosidase activity in Miller units; wild-type pair also with fumarate. Conditions: partners not purified.

The next data set concerns the target T2, T25-DcuR(D56N) (E. coli, UniProt P0AD01 1-239, D56N).
T2 construct: E. coli DcuR, as pMW427 (T25-DcuR) with the phosphorylation site Asp56 changed to Asn; source: bacterial two-hybrid (BACTH) fusion in E. coli BTH101; not shown: T25 domain of Bordetella pertussis adenylate cyclase, N-terminal, kept
T2 sequence (looked up): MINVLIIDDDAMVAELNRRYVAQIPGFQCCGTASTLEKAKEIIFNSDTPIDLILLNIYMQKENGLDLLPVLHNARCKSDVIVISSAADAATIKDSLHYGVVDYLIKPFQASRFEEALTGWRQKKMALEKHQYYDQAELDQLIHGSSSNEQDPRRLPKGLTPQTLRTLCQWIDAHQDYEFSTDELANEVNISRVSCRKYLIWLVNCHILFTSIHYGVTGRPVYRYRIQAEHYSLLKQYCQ
The data set is described as above. Conditions: partners not purified.

A further data set has as its target T3, His6-DcuR (E. coli, UniProt P0AD01 1-239).
T3 construct: response regulator DcuR of E. coli; unphosphorylated; also called DcuR-6His; source: E. coli BL21(DE3), purified (Ni-NTA agarose)
T3 sequence (looked up): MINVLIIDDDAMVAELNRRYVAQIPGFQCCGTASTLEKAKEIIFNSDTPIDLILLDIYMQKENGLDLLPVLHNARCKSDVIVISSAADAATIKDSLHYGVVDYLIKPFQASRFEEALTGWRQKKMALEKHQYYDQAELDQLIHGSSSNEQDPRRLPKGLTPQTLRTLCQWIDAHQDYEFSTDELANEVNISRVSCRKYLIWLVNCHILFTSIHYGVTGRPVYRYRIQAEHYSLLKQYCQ
As to the kind of experiment: SEC; mixtures of PASC-Kin and DcuR (phosphate-free or phosphorylated), molar ratios 1:1.44, 1:2, 1:1.4 with PASC-Kin at 40.4 μM (also 1:0.2, 1:5, 1:10 for PASC-Kin-P and DcuR); HiLoad 16/600 Sephadex 200; peak fractions analysed by SDS-PAGE and quantified with ImageJ. As to conditions: both partners purified.

Data set [1] concerns the molecule itself. The description is as above.
Data set [2] deals with the molecule itself. Kind of data set: SEC; each protein alone on HiLoad 16/600 Sephadex 200; His6-PASc-Kinase 45 μM, DcuR 55 μM; 50 mM Tris-HCl, 1 mM DTT, 50 mM KCl, 5 mM MgCl2, pH 7.7, 25°C; Mr by calibration with protein standards.
In data set [3] the target is B5. As to the kind of experiment: MST; eYFP-L-DcuR at 0.1 μM, His6-PASC-Kin titrated from 10^-1 to 2 x 10^4 nM; Tris/HCl pH 7.7, 10 mM MgCl2, 2 mM DTT; 25°C; Monolith NT.115; 1:1 binding model; Kd refers to monomer concentrations. Conditions: both partners purified.
Data set [4] deals with B4. Described as above. As to conditions: both partners purified.

A word on the stoichiometry N: it is a count of units in the complex or per binding partner. As usually defined, the Kd is the equilibrium constant for the complex coming apart. Read a low Kd as a tighter complex.

B1: PASC-Kin(H349A)-T18 (domain or fragment, E. coli, UniProt P0AEC8 211-539, looked up)
chain: GLEPYEISTLFEQRQAMLQSIKEGVVAVDDRGEVTLINDAAQELLNYRKSQDDEKLSTLSHSWSQVVDVSEVLRDGTPRRDEEITIKDRLLLINTVPVRSNGVIIGAISTFRDKTEVRKLMQRLDGLVNYADALRERSAEFMNKLHVILGLLHLKSYKQLEDYILKTANNYQEEIGSLLGKIKSPVIAGFLISKINRATDLGHTLILNSESQLPDSGSEDQVATLITTLGNLIENALEALGPEPGGEISVTLHYRHGWLHCEVNDDGPGIAPDKIDHIFDKGVSTKGSERGVGLALVKQQVENLGGSIAVESEPGIFTQFFVQIPWDGE
notes: cytoplasmic part of E. coli DcuS, as pMW1076 [DcuS(211-539)] with H349A; source: bacterial two-hybrid (BACTH) fusion in E. coli BTH101; not shown: T18 domain of Bordetella pertussis adenylate cyclase, C-terminal, kept
Regarding B1, the “% of wild-type BACTH activity” value with T25-DcuR was 108%.

B2: DcuS-T18 (natural protein, E. coli, UniProt P0AEC8 1-543, looked up)
chain: MRHSLPYRMLRKRPMKLSTTVILMVSAVLFSVLLVVHLIYFSQISDMTRDGLANKALAVARTLADSPEIRQGLQKKPQESGIQAIAEAVRKRNDLLFIVVTDMQSLRYSHPEAQRIGQPFKGDDILKALNGEENVAINRGFLAQALRVFTPIYDENHKQIGVVAIGLELSRVTQQINDSRWSIIWSVLFGMLVGLIGTCILVKVLKKILFGLEPYEISTLFEQRQAMLQSIKEGVVAVDDRGEVTLINDAAQELLNYRKSQDDEKLSTLSHSWSQVVDVSEVLRDGTPRRDEEITIKDRLLLINTVPVRSNGVIIGAISTFRDKTEVRKLMQRLDGLVNYADALRERSHEFMNKLHVILGLLHLKSYKQLEDYILKTANNYQEEIGSLLGKIKSPVIAGFLISKINRATDLGHTLILNSESQLPDSGSEDQVATLITTLGNLIENALEALGPEPGGEISVTLHYRHGWLHCEVNDDGPGIAPDKIDHIFDKGVSTKGSERGVGLALVKQQVENLGGSIAVESEPGIFTQFFVQIPWDGERSNR
notes: membrane-integral C4-dicarboxylate sensor kinase DcuS of E. coli, full length; also called full-length DcuS; DcuS-fusion; source: bacterial two-hybrid (BACTH) fusion in E. coli BTH101; not shown: T18 domain of Bordetella pertussis adenylate cyclase, C-terminal, kept
For the molecule B2, the “% of wild-type BACTH activity” value with T25-DcuR(D56N) worked out at 94%.

B3: DcuS(H349A)-T18 (natural protein, E. coli, UniProt P0AEC8 1-543, looked up)
chain: MRHSLPYRMLRKRPMKLSTTVILMVSAVLFSVLLVVHLIYFSQISDMTRDGLANKALAVARTLADSPEIRQGLQKKPQESGIQAIAEAVRKRNDLLFIVVTDMQSLRYSHPEAQRIGQPFKGDDILKALNGEENVAINRGFLAQALRVFTPIYDENHKQIGVVAIGLELSRVTQQINDSRWSIIWSVLFGMLVGLIGTCILVKVLKKILFGLEPYEISTLFEQRQAMLQSIKEGVVAVDDRGEVTLINDAAQELLNYRKSQDDEKLSTLSHSWSQVVDVSEVLRDGTPRRDEEITIKDRLLLINTVPVRSNGVIIGAISTFRDKTEVRKLMQRLDGLVNYADALRERSAEFMNKLHVILGLLHLKSYKQLEDYILKTANNYQEEIGSLLGKIKSPVIAGFLISKINRATDLGHTLILNSESQLPDSGSEDQVATLITTLGNLIENALEALGPEPGGEISVTLHYRHGWLHCEVNDDGPGIAPDKIDHIFDKGVSTKGSERGVGLALVKQQVENLGGSIAVESEPGIFTQFFVQIPWDGERSNR
notes: E. coli DcuS, as pMW428 (full-length DcuS-T18) with the phosphorylation site His349 changed to Ala; source: bacterial two-hybrid (BACTH) fusion in E. coli BTH101; not shown: T18 domain of Bordetella pertussis adenylate cyclase, C-terminal, kept
For the molecule B3, the “% of wild-type BACTH activity” value in the data set with T25-DcuR turned out to be 94%.
For the molecule B4, the “stoichiometry N” value in the data set with His6-DcuR turned out to be 0.86 mol DcuR/mol PASC-Kin. Moreover, the binding result in data set [1] is “binds”.
For B5, the “stoichiometry N” value in data set [2] stood at 2.

B6: eYFP-L-DcuR (natural protein, E. coli, UniProt P0AD01 1-239, looked up)
chain: MINVLIIDDDAMVAELNRRYVAQIPGFQCCGTASTLEKAKEIIFNSDTPIDLILLDIYMQKENGLDLLPVLHNARCKSDVIVISSAADAATIKDSLHYGVVDYLIKPFQASRFEEALTGWRQKKMALEKHQYYDQAELDQLIHGSSSNEQDPRRLPKGLTPQTLRTLCQWIDAHQDYEFSTDELANEVNISRVSCRKYLIWLVNCHILFTSIHYGVTGRPVYRYRIQAEHYSLLKQYCQ
notes: response regulator DcuR of E. coli, joined genetically to eYFP by a short linker; unphosphorylated; The His6 tag is printed at the N-terminus and at the C-terminus in the same paragraph; also called eYfp-Linker-DcuR; His6-eYfp-Linker-DcuR; source: E. coli BL21(DE3), purified (Ni-NTA agarose)
On to B6, for which the Kd in data set [3] was 1380 nM; in data set [4], 22 nM.

B7: eYFP-L-DcuR-P (natural protein, E. coli, UniProt P0AD01 1-239, looked up)
chain: MINVLIIDDDAMVAELNRRYVAQIPGFQCCGTASTLEKAKEIIFNSDTPIDLILLDIYMQKENGLDLLPVLHNARCKSDVIVISSAADAATIKDSLHYGVVDYLIKPFQASRFEEALTGWRQKKMALEKHQYYDQAELDQLIHGSSSNEQDPRRLPKGLTPQTLRTLCQWIDAHQDYEFSTDELANEVNISRVSCRKYLIWLVNCHILFTSIHYGVTGRPVYRYRIQAEHYSLLKQYCQ
modifications: phosphorylated with carbamoyl phosphate; phosphorylation site Asp56 of DcuR
notes: response regulator DcuR of E. coli, joined genetically to eYFP by a short linker, phosphorylated with carbamoyl phosphate; also called eYFP-DcuR~P; source: E. coli BL21(DE3), purified (Ni-NTA agarose), then incubated with 50 mM carbamoyl phosphate
B7 displayed a Kd in data set [3] of 28 nM.

The record behind these values is PMC9429925, “Tight Complex Formation of the Fumarate Sensing DcuS-DcuR Two-Component System at the Membrane and Target Promoter Search by Free DcuR Diffusion” (mSphere, 2022).
